According to patent US20240035010, “COMPOSITIONS COMPRISING A VARIANT POLYPEPTIDE AND USES THEREOF” (Arbor Biotechnologies, Inc., published 2024):

Columns and labels:
[1] = target: T1, variant nuclease T338G combination (P14R, D32R, I61R, E311R, T338G); test: cell_activity; PAM 5'-TTTA-3'; settings: tags: pcDNA3.1 expression
T1 chain: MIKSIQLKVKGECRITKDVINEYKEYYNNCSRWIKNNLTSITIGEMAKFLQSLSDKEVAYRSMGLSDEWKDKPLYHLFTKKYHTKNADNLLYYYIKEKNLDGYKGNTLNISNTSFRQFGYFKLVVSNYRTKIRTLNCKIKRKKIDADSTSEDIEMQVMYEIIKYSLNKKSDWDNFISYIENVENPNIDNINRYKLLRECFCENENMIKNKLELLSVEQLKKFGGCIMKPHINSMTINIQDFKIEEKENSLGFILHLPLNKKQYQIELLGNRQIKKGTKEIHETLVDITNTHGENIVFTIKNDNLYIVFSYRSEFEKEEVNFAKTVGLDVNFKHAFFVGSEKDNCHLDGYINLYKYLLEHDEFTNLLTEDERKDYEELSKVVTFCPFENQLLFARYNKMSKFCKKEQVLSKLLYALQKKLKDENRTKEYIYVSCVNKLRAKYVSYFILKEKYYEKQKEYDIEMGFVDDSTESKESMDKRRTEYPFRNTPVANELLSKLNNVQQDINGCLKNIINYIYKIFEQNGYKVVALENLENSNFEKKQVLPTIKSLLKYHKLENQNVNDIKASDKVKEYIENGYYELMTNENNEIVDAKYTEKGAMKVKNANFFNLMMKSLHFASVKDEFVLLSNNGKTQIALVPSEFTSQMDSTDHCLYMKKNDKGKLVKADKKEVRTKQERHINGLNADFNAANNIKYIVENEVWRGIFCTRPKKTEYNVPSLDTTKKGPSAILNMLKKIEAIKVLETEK
Procedure: (§1) Approximately 16 hours prior to transfection, 25,000 HEK293T cells in DMEM/10% FBS+Pen/Strep (D10 media) were plated into each well of a 96-well plate. On the day of transfection, the cells were 70-90% confluent. For each well to be transfected, a mixture of Lipofectamine 2000™ and Opti-MEM™ was prepared and incubated at room temperature for 5 minutes (Solution 1). After incubation, the Lipofectamine 2000™:Opti-MEM™ mixture was added to a separate mixture containing nuclease plasmid, RNA guide plasmid, and Opti-MEM™ (Solution 2). In the case of negative controls, the RNA guide plasmid was not included in Solution 2. Solutions 1 and 2 were mixed by pipetting up and down, then incubated at room temperature for 25 minutes. Following incubation, the Solution 1 and 2 mixture was added dropwise to each well of a 96-well plate containing the cells. Approximately 72 hours post transfection, cells were trypsinized by adding TrypLE™ to the center of each well and incubating at 37° C. for approximately 5 minutes. D10 media was then added to each well and mixed to resuspend cells. The resuspended cells were centrifuged at 500 g for 10 minutes to obtain a pellet, and the supernatant was discarded. The cell pellet was then resuspended in QuickExtract™ buffer (Lucigen®), and cells were incubated at 65° C. for 15 minutes, 68° C. for 15 minutes, and 98° C. for 10 minutes.
(§2) This Example describes assessment of indel activity at multiple target sites using the wild-type polypeptide of SEQ ID NO: 3 or variant polypeptides of Table 4. The variant polypeptides were cloned into a pcDNA3.1 backbone (Invitrogen), and the cells were transfected as described in Example 7.
(§3) The percentage of NGS reads containing indels (% indels) were calculated. For each variant polypeptide and target, % indels were averaged across two bioreplicates and two technical replicates. These values were then compared to % indels of the wild-type polypeptide of SEQ ID NO: 3.

[2] = target: T2, variant nuclease D55G/E736G combination (P14R, D32R, I61R, E311R, D55G, E736G); test: cell_activity; PAM 5'-TTTA-3'; settings: tags: pcDNA3.1 expression
T2 chain: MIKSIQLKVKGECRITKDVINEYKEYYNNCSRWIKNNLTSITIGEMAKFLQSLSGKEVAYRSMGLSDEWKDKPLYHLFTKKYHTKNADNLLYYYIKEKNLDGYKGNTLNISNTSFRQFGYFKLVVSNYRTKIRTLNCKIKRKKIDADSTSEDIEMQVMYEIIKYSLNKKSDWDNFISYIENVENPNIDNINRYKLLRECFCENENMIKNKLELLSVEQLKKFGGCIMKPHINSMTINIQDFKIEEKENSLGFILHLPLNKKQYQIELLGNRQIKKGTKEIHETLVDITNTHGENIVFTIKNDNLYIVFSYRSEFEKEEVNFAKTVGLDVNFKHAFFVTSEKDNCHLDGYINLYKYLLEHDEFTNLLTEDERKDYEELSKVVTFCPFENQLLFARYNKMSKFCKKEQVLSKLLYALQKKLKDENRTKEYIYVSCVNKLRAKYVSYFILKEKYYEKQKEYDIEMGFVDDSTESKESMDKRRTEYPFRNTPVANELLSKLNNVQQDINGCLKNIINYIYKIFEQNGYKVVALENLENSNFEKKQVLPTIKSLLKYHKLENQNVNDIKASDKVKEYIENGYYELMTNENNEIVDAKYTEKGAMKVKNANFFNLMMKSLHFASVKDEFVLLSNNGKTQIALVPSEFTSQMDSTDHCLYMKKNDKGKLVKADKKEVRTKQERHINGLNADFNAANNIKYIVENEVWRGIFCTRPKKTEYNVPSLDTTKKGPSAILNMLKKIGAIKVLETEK
Procedure: as §1, §2, §3

B1: VEGFA crRNA ; VEGFA target (ssRNA ; dsDNA)
RNA: CUUGUUGUAUAUGUCCUUUUAUAGGUAUUAAACAACUCCAGACCACCAAUGGGCAC
DNA 1: TCCAGACCACCAATGGGCAC
DNA 2: GTGCCCATTGGTGGTCTGGA
indel activity [1]: 2.72 fold of WT
indel activity [2]: 3.06 fold of WT
